# Data reported in US20210309735A1 (published 2021).
# Columns and labels:
# human IL-17A [1] = molecular target: T1, human IL-17A (human, UniProt Q16552 20-155, limits assumed); experiment: blocking ELISA, IL-17RA coated; control IgG pre-mixed with human IL-17A 0.1 ug/ml; bound IL-17A detected
# T1 construct: Bought from R&D Systems; also called IL-17 antigen (human IL17A)
# T1 sequence (looked up): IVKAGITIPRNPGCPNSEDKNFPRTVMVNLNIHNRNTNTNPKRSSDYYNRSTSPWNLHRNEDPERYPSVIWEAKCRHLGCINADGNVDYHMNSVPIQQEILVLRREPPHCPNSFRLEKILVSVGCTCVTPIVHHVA
# human IL-17A [2] = molecular target: T1, human IL-17A; experiment: blocking ELISA, IL-17RA coated; control IgG pre-mixed with human IL-17A 0.1 ug/ml; bound IL-17A detected (unblocked signal)
# human IL-17A [3] = molecular target: T1, human IL-17A; experiment: blocking ELISA, IL-17RC coated; control IgG pre-mixed with human IL-17A 0.1 ug/ml; bound IL-17A detected
# human IL-17A [4] = molecular target: T1, human IL-17A; experiment: blocking ELISA, IL-17RC coated; control IgG pre-mixed with human IL-17A 0.1 ug/ml; bound IL-17A detected (unblocked signal)
substance,measurement,setting,value
Normal human IgG (antibody),Blocking %,human IL-17A [1],0%
same,OD450,human IL-17A [2],1.39 OD450
same,Blocking %,human IL-17A [3],0%
same,OD450,human IL-17A [4],0.487 OD450
